# According to article PMC10505172, “Discovery and pharmacophoric characterization of chemokine network inhibitors using phage-display, saturation mutagenesis and computational modelling” (Nature Communications, 2023):
# B1: EVA4: parental tick class A evasin, mature peptide residues 24–127 with N-terminal His-tag, expressed in HEK293F cells (protein)
# chain: EVPQMTSSSAPDLEEEDDYTAYAPLTCYFTNSTLGLLAPPNCSVLCNSTTTWFNETSPNNASCLLTVDFLTQDAILQENQPYNCSVGHCDNGTCAGPPRHAQCW
# modifications: left off: 8xHis, N-terminal, state not stated
# notes: parental tick class A evasin, mature peptide residues 24–127 with N-terminal His-tag, expressed in HEK293F cells
# How the values were obtained:
# CXCL6 = target: T1, CXCL6 (Homo sapiens, UniProt P80162); experiment: CXCL6-induced Jurkat CXCR1 (J:CXCR1) migration (chemotaxis); assay type: cell-based; settings: HD2, HD2SCR and EVA4 at 10 μM, chemokine at EC80, J:CXCR1 cells, n = 3 biological replicates, Dunnett's test
# T1 construct: purchased Peprotech 300-41
# Method: For THP1 migration assays, 300000 cells/well were added to the top chamber of a 5-µm 96-well Transwell insert (3387, Corning) in 50 µL of cell migration media (RPMI-1640 (R0883, Sigma), 0.5% FBS (F9665, Sigma), 4 mM L-Glutamine (G7513, Sigma), 0.05% DMSO (D4540, Sigma)). The bottom chamber contained 150 µL of migration media with chemokine and peptide added. Cells were migrated at 37 °C in 5% CO2 for 4 h.
# J:CXCR1 migration assays were performed exactly as for THP1 assays except that a 3-µm Transwell insert (3385, Corning) was used.
# Following the migration assay the migration plate was shaken at 850 RPM for 10 min, and media from bottom plate transferred to a round-bottomed 96 well plate (353910, Falcon). Cell counts were determined using an Atune NxT Flow Cytometer Plate Reader with Cytkick autosampler (ThermoFisher), based on cell size parameters FSC-H/SSC-H, and a previously defined gate setting for each cell type (Supplementary Fig. 11). […] Statistical significances between control and experimental groups was evaluated using Dunnett’s test[73]. […] EC80 was calculated by fitting a chemokine dose-response curve with a 3-parameter log-logistic model (fixing the top to 100%) using the function “drm” in R-package drc[74]. IC50 was calculated by fitting an inhibitor response curve with a 4-parameter log-logistic model using the function “drm” in R-package drc[74]. […]
# CXCL10 = target: T2, CXCL10 (Homo sapiens, UniProt P02778); experiment: CXCL10-induced activated T cell (ATC) migration (chemotaxis); assay type: cell-based; settings: HD2, HD2SCR and EVA4 at 20 μM (Fig. 6i), activated T cells, n = 3 biological replicates
# T2 construct: purchased Peprotech 300-12
# Method: For activated-T cell migration assays, 100000 cells/well were added to the top chamber of a 3-µm Transwell insert (3385, Corning) in 50 µL of migration media (HBSS (14025-092, Life Technologies), 0.1% protease free bovine serum albumin (A7030, Sigma), 0.05% DMSO (D4540, Sigma)). The bottom chamber contained 150 µL of migration media with chemokine and peptide added. Cells were migrated at 37 °C in 5% CO2 for 2 h.
# Following the migration assay the migration plate was shaken at 850 RPM for 10 min, and media from bottom plate transferred to a round-bottomed 96 well plate (353910, Falcon). Cell counts were determined using an Atune NxT Flow Cytometer Plate Reader with Cytkick autosampler (ThermoFisher), based on cell size parameters FSC-H/SSC-H, and a previously defined gate setting for each cell type (Supplementary Fig. 11). All experiments were performed as three technical and three biological replicates. Statistical significances between control and experimental groups was evaluated using Dunnett’s test[73]. IC50 experiments were performed at the EC80 dose of chemokine. EC80 was calculated by fitting a chemokine dose-response curve with a 3-parameter log-logistic model (fixing the top to 100%) using the function “drm” in R-package drc[74]. IC50 was calculated by fitting an inhibitor response curve with a 4-parameter log-logistic model using the function “drm” in R-package drc[74]. […]
molecule,measurement,setting,value
B1,effect on chemokine-induced cell migration,CXCL6,did not inhibit
same,effect on chemokine-induced cell migration,CXCL10,did not inhibit
